{"source": "paper PMC12102759", "parents": {"B1": {"name": "NOTCH4 peptide 1604-1619 (Neurogenic locus notch homolog protein 4), 16-mer library wild type / NSP9 (ORF1ab Nsp9, residues 4141-4253) (parent)", "chain 1": "TFQGAWLGAPEPWEPL", "chain 2": "NNELSPVALRQMSCAAGTTQTACTDDNALAYYNTTKGGRFVLALLSDLQDLKWARFPKSDGTGTIYTELEPPCRFVTDTPKGPKVKYLYFIKGLNNLNRGMVLGSLAATVRLQ"}, "B2": {"name": "NYNRIN peptide 1032-1047 (Protein NYNRIN), 16-mer library wild type / NSP3 UBl1 (ORF1ab Nsp3a Ub1, residues 819-925) (parent)", "chain 1": "PSLSEEILRALSLHDP", "chain 2": "APTKVTFGDDTVIEVQGYKSVNITFELDERIDKVLNEKCSAYTVELGTEVNEFACVVADAVIKTLQPVSELLTPLGIDLDEWSMATYYLFDESGEFKLASHMYCSFY"}, "B3": {"name": "AZIN2 peptide 1-16 (Antizyme inhibitor 2), 16-mer library wild type / NSP3 ADRP (ORF1ab Nsp3b ADRP, residues 1023-1192) (parent)", "chain 1": "MAGYLSESDFVMVEEG", "chain 2": "not shown"}, "B4": {"name": "NEK9 peptide 736-751 (Serine/threonine-protein kinase Nek9), 16-mer library wild type / NSP9 (ORF1ab Nsp9, residues 4141-4253) (parent)", "chain 1": "NSSGLSIGTVFQSSSP", "chain 2": "B1 chain 2"}}, "data": [{"variants_of": "B1", "settings": "with NSP9 (ORF1ab Nsp9, residues 4141-4253); bait immobilised on MaxiSorp plates (10 µg), library pre-cleared on GST, 2 h binding at 4 °C, five washes; one round per day, days 1-4; value from days 2 and 3; keep out of graded; scale: average fractional NGS count over selection days 2 and 3", "values": [{"variant": "chain 1 A5G", "screen value": 0}, {"variant": "chain 1 P12W", "screen value": 0}, {"variant": "chain 1 P12K", "screen value": "8.35e-05"}, {"variant": "chain 1 P12R", "screen value": "8.09e-05"}, {"variant": "chain 1 P12Q", "screen value": "3.5e-05"}, {"variant": "chain 1 P12Y", "screen value": "2.09e-05"}, {"variant": "chain 1 P12V", "screen value": 0.000373}, {"variant": "chain 1 P12A", "screen value": "3.02e-05"}, {"variant": "chain 1 P12F", "screen value": "1.76e-05"}, {"variant": "chain 1 P12H", "screen value": "9.54e-05"}, {"variant": "chain 1 P12T", "screen value": 0}, {"variant": "chain 1 F2W", "screen value": 0}, {"variant": "chain 1 F2A", "screen value": 0.000265}, {"variant": "chain 1 F2L", "screen value": 0}, {"variant": "chain 1 F2P", "screen value": "6.51e-05"}, {"variant": "chain 1 F2D", "screen value": "6.3e-05"}, {"variant": "chain 1 F2I", "screen value": 0}, {"variant": "chain 1 F2E", "screen value": "3.22e-05"}, {"variant": "chain 1 F2V", "screen value": 0}, {"variant": "chain 1 F2G", "screen value": "5.47e-05"}, {"variant": "chain 1 W13S", "screen value": "2.43e-05"}, {"variant": "chain 1 W13F", "screen value": 0}, {"variant": "chain 1 W13T", "screen value": "4.47e-05"}, {"variant": "chain 1 W13I", "screen value": "3.37e-05"}, {"variant": "chain 1 W13Q", "screen value": 0}, {"variant": "chain 1 W13M", "screen value": 0}, {"variant": "chain 1 W6N", "screen value": 0}, {"variant": "chain 1 W6I", "screen value": 0}, {"variant": "chain 1 L16T", "screen value": 0}, {"variant": "chain 1 L16G", "screen value": 0}, {"variant": "chain 1 L16V", "screen value": 0}, {"variant": "chain 1 G8M", "screen value": 0}, {"variant": "chain 1 G8V", "screen value": 0}, {"variant": "chain 1 G8K", "screen value": 0}, {"variant": "chain 1 G8R", "screen value": 0}, {"variant": "chain 1 G8E", "screen value": 0}, {"variant": "chain 1 G4Y", "screen value": 0}, {"variant": "chain 1 G4R", "screen value": 0}, {"variant": "chain 1 G4D", "screen value": 0}, {"variant": "chain 1 G4V", "screen value": 0}, {"variant": "chain 1 G4L", "screen value": 0}, {"variant": "chain 1 G4P", "screen value": 0}, {"variant": "chain 1 A9M", "screen value": 0}, {"variant": "chain 1 A9P", "screen value": 0}, {"variant": "chain 1 A9W", "screen value": "4.99e-05"}]}, {"variants_of": "B2", "settings": "with NSP3 UBl1 (ORF1ab Nsp3a Ub1, residues 819-925); bait immobilised on MaxiSorp plates (10 µg), library pre-cleared on GST, 2 h binding at 4 °C, five washes; one round per day, days 1-4; value from days 2 and 3; keep out of graded; scale: average fractional NGS count over selection days 2 and 3", "values": [{"variant": "chain 1 L13P", "screen value": 0}, {"variant": "chain 1 L3A", "screen value": 0}, {"variant": "chain 1 I7T", "screen value": 0}, {"variant": "chain 1 I7D", "screen value": 0}, {"variant": "chain 1 A10M", "screen value": 0}, {"variant": "chain 1 D15K", "screen value": 0}, {"variant": "chain 1 D15E", "screen value": 0}, {"variant": "chain 1 D15G", "screen value": 0}, {"variant": "chain 1 L8H", "screen value": 0}, {"variant": "chain 1 E6Q", "screen value": "2.97e-05"}, {"variant": "chain 1 E5M", "screen value": 0}, {"variant": "chain 1 E5H", "screen value": 0}, {"variant": "chain 1 H14F", "screen value": "7.34e-06"}, {"variant": "chain 1 H14N", "screen value": 0}, {"variant": "chain 1 L11H", "screen value": 0}, {"variant": "chain 1 S2R", "screen value": 0}]}, {"variants_of": "B3", "settings": "with NSP3 ADRP (ORF1ab Nsp3b ADRP, residues 1023-1192); bait immobilised on MaxiSorp plates (10 µg), library pre-cleared on GST, 2 h binding at 4 °C, five washes; one round per day, days 1-4; value from days 2 and 3; keep out of graded; scale: average fractional NGS count over selection days 2 and 3", "values": [{"variant": "chain 1 E14V", "screen value": "1.13e-05"}, {"variant": "chain 1 E14H", "screen value": "3.26e-05"}, {"variant": "chain 1 E14T", "screen value": "1.06e-05"}, {"variant": "chain 1 E14A", "screen value": "3.37e-05"}, {"variant": "chain 1 E14G", "screen value": "5.95e-05"}, {"variant": "chain 1 E15A", "screen value": "1.82e-05"}, {"variant": "chain 1 D9A", "screen value": "1.5e-05"}, {"variant": "chain 1 D9H", "screen value": "2.63e-05"}, {"variant": "chain 1 D9T", "screen value": "2.66e-05"}, {"variant": "chain 1 D9I", "screen value": "2.23e-05"}, {"variant": "chain 1 A2G", "screen value": 0}, {"variant": "chain 1 A2H", "screen value": 0}, {"variant": "chain 1 A2M", "screen value": 0}, {"variant": "chain 1 E7T", "screen value": 0}, {"variant": "chain 1 E7S", "screen value": 0}, {"variant": "chain 1 E7A", "screen value": 0}]}, {"variants_of": "B4", "settings": "with NSP9 (ORF1ab Nsp9, residues 4141-4253); bait immobilised on MaxiSorp plates (10 µg), library pre-cleared on GST, 2 h binding at 4 °C, five washes; one round per day, days 1-4; value from days 2 and 3; keep out of graded; scale: average fractional NGS count over selection days 2 and 3", "values": [{"variant": "chain 1 S6Q", "screen value": 0}, {"variant": "chain 1 S6L", "screen value": "9.77e-05"}, {"variant": "chain 1 S6W", "screen value": 0}, {"variant": "chain 1 S6A", "screen value": 0.000439}, {"variant": "chain 1 S6F", "screen value": 0}, {"variant": "chain 1 S6Y", "screen value": 0}, {"variant": "chain 1 S6V", "screen value": 0}, {"variant": "chain 1 V10T", "screen value": 0}, {"variant": "chain 1 V10S", "screen value": "5.93e-05"}, {"variant": "chain 1 V10D", "screen value": 0.000207}, {"variant": "chain 1 V10F", "screen value": 0}, {"variant": "chain 1 S14T", "screen value": 0}, {"variant": "chain 1 S14D", "screen value": "7.14e-05"}, {"variant": "chain 1 S14I", "screen value": 0.0016}, {"variant": "chain 1 S14E", "screen value": 0}, {"variant": "chain 1 S14F", "screen value": 0.000194}, {"variant": "chain 1 S14N", "screen value": "3.83e-05"}, {"variant": "chain 1 P16F", "screen value": 0}, {"variant": "chain 1 P16N", "screen value": "4.17e-05"}, {"variant": "chain 1 P16Q", "screen value": 0}, {"variant": "chain 1 P16V", "screen value": 0.000367}, {"variant": "chain 1 P16L", "screen value": "3.5e-05"}, {"variant": "chain 1 P16M", "screen value": 0}, {"variant": "chain 1 P16K", "screen value": 0.000119}, {"variant": "chain 1 P16T", "screen value": "2.95e-05"}, {"variant": "chain 1 P16D", "screen value": 0.000477}, {"variant": "chain 1 G4W", "screen value": 0}, {"variant": "chain 1 G4I", "screen value": 0}, {"variant": "chain 1 G4Y", "screen value": 0}, {"variant": "chain 1 T9N", "screen value": 0.000187}, {"variant": "chain 1 T9G", "screen value": 0}, {"variant": "chain 1 T9Y", "screen value": "2.09e-05"}, {"variant": "chain 1 T9D", "screen value": 0.00026}, {"variant": "chain 1 T9L", "screen value": 0}, {"variant": "chain 1 T9E", "screen value": 0.00124}, {"variant": "chain 1 T9S", "screen value": 0}, {"variant": "chain 1 T9P", "screen value": "6.33e-05"}, {"variant": "chain 1 T9H", "screen value": "1.62e-05"}, {"variant": "chain 1 F11G", "screen value": 0.000245}, {"variant": "chain 1 F11P", "screen value": 0.0001}, {"variant": "chain 1 F11M", "screen value": 0.000187}, {"variant": "chain 1 F11E", "screen value": 0.000183}, {"variant": "chain 1 F11I", "screen value": 0.000239}, {"variant": "chain 1 F11R", "screen value": 0}, {"variant": "chain 1 G8T", "screen value": 0}, {"variant": "chain 1 G8Y", "screen value": 0}, {"variant": "chain 1 G8D", "screen value": 0.000107}, {"variant": "chain 1 S13E", "screen value": 0.000579}, {"variant": "chain 1 S13A", "screen value": 0}, {"variant": "chain 1 S13M", "screen value": 0}, {"variant": "chain 1 S13T", "screen value": 0.000105}, {"variant": "chain 1 S13G", "screen value": "1.34e-05"}, {"variant": "chain 1 S13L", "screen value": "1.28e-05"}, {"variant": "chain 1 S13H", "screen value": "8.96e-05"}, {"variant": "chain 1 S13D", "screen value": 0.000121}, {"variant": "chain 1 I7G", "screen value": 0}, {"variant": "chain 1 I7L", "screen value": "9.86e-05"}, {"variant": "chain 1 I7S", "screen value": 0}, {"variant": "chain 1 S3W", "screen value": 0.000185}, {"variant": "chain 1 S3Q", "screen value": 0.000703}, {"variant": "chain 1 S3E", "screen value": 0.000394}, {"variant": "chain 1 S3K", "screen value": 0}, {"variant": "chain 1 S3H", "screen value": "3.04e-05"}, {"variant": "chain 1 S3D", "screen value": 0.000508}, {"variant": "chain 1 S3M", "screen value": "5.44e-05"}, {"variant": "chain 1 S3V", "screen value": 0}, {"variant": "chain 1 S2Q", "screen value": "2.69e-05"}, {"variant": "chain 1 S2G", "screen value": "2.56e-05"}, {"variant": "chain 1 S2H", "screen value": 0}, {"variant": "chain 1 S2P", "screen value": 0.00012}, {"variant": "chain 1 L5R", "screen value": 0}, {"variant": "chain 1 L5V", "screen value": "4.92e-05"}, {"variant": "chain 1 L5Q", "screen value": 0}, {"variant": "chain 1 L5K", "screen value": 0}, {"variant": "chain 1 S15I", "screen value": "4.92e-05"}, {"variant": "chain 1 S15A", "screen value": "2.5e-05"}, {"variant": "chain 1 S15M", "screen value": 0.000159}, {"variant": "chain 1 S15K", "screen value": 0}, {"variant": "chain 1 S15L", "screen value": "2.69e-05"}, {"variant": "chain 1 S15G", "screen value": "3.5e-05"}, {"variant": "chain 1 Q12E", "screen value": 0.00594}, {"variant": "chain 1 Q12N", "screen value": 0.000424}, {"variant": "chain 1 Q12D", "screen value": "3.3e-05"}, {"variant": "chain 1 Q12S", "screen value": "4.58e-05"}, {"variant": "chain 1 Q12V", "screen value": 0}, {"variant": "chain 1 Q12P", "screen value": 0}, {"variant": "chain 1 Q12A", "screen value": "1.81e-05"}, {"variant": "chain 1 Q12M", "screen value": "1.76e-05"}, {"variant": "chain 1 Q12Y", "screen value": "1.21e-05"}, {"variant": "chain 1 Q12I", "screen value": 0}]}]}
